Source: the supplement of paper PMC10567573

B1: MMP1 (parent)
chain: FVRGDHRDNSPFDGPGGNLAHAFQ

Variants of: B1
Assay: protein stability index of a GFP-peptide fusion (GPS, HEK-293T) (PSI 1-6); higher = more stable
Conditions: c terminus: a fixed tail appended
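Also: lentivirally expressed fusions sorted by FACS into six bins by GFP to DsRed ratio, PSI derived from sequencing read proportions per bin multiplied by bin number.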

Point of comparison: FVRGDHWDNSPFDGPGGNLAHAFQ [R7W], protein stability index 2.33. Against it:
- FVRGDHRKNSPFDGPGGNLAHAFQ [D8K] — higher, 2.78
- FVRGDHRQNSPFDGPGGNLAHAFQ [D8Q] — higher, 3.21
- FVRGDHRANSPFDGPGGNLAHAFQ [D8A] — lower, 1.63
- FVRGDHRDNSFFDGPGGNLAHAFQ [P11F] — lower, 1.83
- FVRGDHRDNSNFDGPGGNLAHAFQ [P11N] — lower, 2.13
- FVRGDHRDNSLFDGPGGNLAHAFQ [P11L] — lower, 1.34
- FVRGDHRDNSIFDGPGGNLAHAFQ [P11I] — lower, 1.7
- FVRGDHRDNSYFDGPGGNLAHAFQ [P11Y] — lower, 2.04
- FVRGDHRDNSVFDGPGGNLAHAFQ [P11V] — lower, 2.06
- FVRGDHRDNSHFDGPGGNLAHAFQ [P11H] — lower, 1.5
- FVRGDHRDNSEFDGPGGNLAHAFQ [P11E] — lower, 2.06
- FVRGDHRDNSMFDGPGGNLAHAFQ [P11M] — lower, 1.6
- FVRGDHRDNSWFDGPGGNLAHAFQ [P11W] — lower, 1.84
- FVRGDHRDNSAFDGPGGNLAHAFQ [P11A] — lower, 1.81
- FVRGDHRDNSKFDGPGGNLAHAFQ [P11K] — lower, 1.78
- FVRGDHRDNSGFDGPGGNLAHAFQ [P11G] — higher, 2.89
- FVRGDHRDNSDFDGPGGNLAHAFQ [P11D] — higher, 2.79
- FVRGDHRDNSRFDGPGGNLAHAFQ [P11R] — higher, 2.4
- FVRGDHRDNSTFDGPGGNLAHAFQ [P11T] — lower, 1.8
- FVRGDHRDNSSFDGPGGNLAHAFQ [P11S] — higher, 2.91
- FVRGDHRDNSCFDGPGGNLAHAFQ [P11C] — higher, 2.61
- FVRGDHRDNSQFDGPGGNLAHAFQ [P11Q] — lower, 2.02
- FVRGIHRDNSPFDGPGGNLAHAFQ [D5I] — lower, 1.66
- FVRGGHRDNSPFDGPGGNLAHAFQ [D5G] — lower, 1.34
- FVRGVHRDNSPFDGPGGNLAHAFQ [D5V] — lower, 1.81
- FVRGFHRDNSPFDGPGGNLAHAFQ [D5F] — higher, 2.45
- FVRGRHRDNSPFDGPGGNLAHAFQ [D5R] — higher, 3.46
- FVRGAHRDNSPFDGPGGNLAHAFQ [D5A] — lower, 2.15
- FVRGSHRDNSPFDGPGGNLAHAFQ [D5S] — higher, 2.75
- FVRGTHRDNSPFDGPGGNLAHAFQ [D5T] — higher, 3.73
- FVRGNHRDNSPFDGPGGNLAHAFQ [D5N] — higher, 2.52
- FVRGKHRDNSPFDGPGGNLAHAFQ [D5K] — higher, 3.58
- FVRGEHRDNSPFDGPGGNLAHAFQ [D5E] — lower, 1.5
- FVRGPHRDNSPFDGPGGNLAHAFQ [D5P] — lower, 2.27
- FVRGWHRDNSPFDGPGGNLAHAFQ [D5W] — higher, 2.86
- FVRVDHRDNSPFDGPGGNLAHAFQ [G4V] — lower, 1.94
- FVRWDHRDNSPFDGPGGNLAHAFQ [G4W] — lower, 1.94
- FVRYDHRDNSPFDGPGGNLAHAFQ [G4Y] — lower, 2.09
- FVRGDHRDNHPFDGPGGNLAHAFQ [S10H] — lower, 1.51
- FVRGDHRDNMPFDGPGGNLAHAFQ [S10M] — lower, 2.11
- FVRGDHRDNNPFDGPGGNLAHAFQ [S10N] — lower, 1.38
- FVRGDHRDNPPFDGPGGNLAHAFQ [S10P] — higher, 2.84
- FVRGDHRDNFPFDGPGGNLAHAFQ [S10F] — higher, 2.42
- FVRGDHRDNRPFDGPGGNLAHAFQ [S10R] — lower, 2.03
- FVRGDHRDNEPFDGPGGNLAHAFQ [S10E] — lower, 1.53
- FVRGDHRDNTPFDGPGGNLAHAFQ [S10T] — lower, 2.13
- FVRGDHRDNKPFDGPGGNLAHAFQ [S10K] — higher, 2.63
- FVRGDHRDNGPFDGPGGNLAHAFQ [S10G] — lower, 1.3
- FVRGDHRDNYPFDGPGGNLAHAFQ [S10Y] — lower, 1.71
- FVRGDHRDNAPFDGPGGNLAHAFQ [S10A] — lower, 2.32
- FVRGDHRDNIPFDGPGGNLAHAFQ [S10I] — lower, 1.71
- FVRGDHRDNDPFDGPGGNLAHAFQ [S10D] — lower, 1.35
- FVRGDHRDNVPFDGPGGNLAHAFQ [S10V] — lower, 1.42
- FVRGDHRDNLPFDGPGGNLAHAFQ [S10L] — lower, 1.83
- FVRGDHRDNQPFDGPGGNLAHAFQ [S10Q] — lower, 1.6
- FVRGDHRDNCPFDGPGGNLAHAFQ [S10C] — lower, 1.83
- FVRGDHGDNSPFDGPGGNLAHAFQ [R7G] — lower, 1.26
- FVRGDHNDNSPFDGPGGNLAHAFQ [R7N] — lower, 1.7
- FVRGDHVDNSPFDGPGGNLAHAFQ [R7V] — lower, 2.04
- FVRGDHQDNSPFDGPGGNLAHAFQ [R7Q] — higher, 2.55
- FVRGDHLDNSPFDGPGGNLAHAFQ [R7L] — higher, 3.54
- FVRGDHIDNSPFDGPGGNLAHAFQ [R7I] — higher, 2.77
- FVRGDHEDNSPFDGPGGNLAHAFQ [R7E] — lower, 1.91
- FVRGDHSDNSPFDGPGGNLAHAFQ [R7S] — lower, 1.37
- FVRGDHHDNSPFDGPGGNLAHAFQ [R7H] — higher, 2.91
- FVRGDHDDNSPFDGPGGNLAHAFQ [R7D] — lower, 1.56
- FVRGDHCDNSPFDGPGGNLAHAFQ [R7C] — lower, 1.82
- FVRGDHFDNSPFDGPGGNLAHAFQ [R7F] — higher, 2.83
- FVRGDHYDNSPFDGPGGNLAHAFQ [R7Y] — lower, 2.18
- FVRGDHADNSPFDGPGGNLAHAFQ [R7A] — lower, 2.02
- FVRGDHPDNSPFDGPGGNLAHAFQ [R7P] — higher, 2.8
- FVRGDHTDNSPFDGPGGNLAHAFQ [R7T] — lower, 2.18
- FVRGDHKDNSPFDGPGGNLAHAFQ [R7K] — lower, 1.68
- FVRGDHMDNSPFDGPGGNLAHAFQ [R7M] — lower, 1.78
- FVRGDHRDNSPCDGPGGNLAHAFQ [F12C] — lower, 2
- FVRGDHRDNSPMDGPGGNLAHAFQ [F12M] — lower, 2.08
- FVRGDHRDNSPGDGPGGNLAHAFQ [F12G] — lower, 2.24
- FVRGDHRDNSPADGPGGNLAHAFQ [F12A] — lower, 1.91
- FVRGDHRDNSPYDGPGGNLAHAFQ [F12Y] — higher, 2.89
- FVRGDHRDNSPSDGPGGNLAHAFQ [F12S] — lower, 1.95
- FVRGDHRDNSPLDGPGGNLAHAFQ [F12L] — lower, 1.72
- FVRGDHRDNSPIDGPGGNLAHAFQ [F12I] — lower, 1.72
- FVRGDHRDNSPNDGPGGNLAHAFQ [F12N] — lower, 1.83
- FVRGDHRDNSPWDGPGGNLAHAFQ [F12W] — higher, 3.55
- FVRGDHRDNSPQDGPGGNLAHAFQ [F12Q] — lower, 1.8
- FVRGDHRDNSPEDGPGGNLAHAFQ [F12E] — lower, 1.82
- FVRGDHRDNSPRDGPGGNLAHAFQ [F12R] — lower, 1.84
- FVRGDHRDNSPHDGPGGNLAHAFQ [F12H] — lower, 1.99
- FVRGDHRDNSPKDGPGGNLAHAFQ [F12K] — lower, 2.27
- FVRGDHRDNSPDDGPGGNLAHAFQ [F12D] — lower, 2.3
- FVRGDHRDNSPVDGPGGNLAHAFQ [F12V] — lower, 1.94
- FVRGDHRDNSPTDGPGGNLAHAFQ [F12T] — higher, 2.39
- FVRGDHRDNSPPDGPGGNLAHAFQ [F12P] — lower, 2.31
